In paper PMC314469, “Protein Interaction Networks by Proteome Peptide Scanning” (PLoS Biology, 2004):

T1: Abp1 SH3 (ABP1_YEAST), P15891
T1 chain: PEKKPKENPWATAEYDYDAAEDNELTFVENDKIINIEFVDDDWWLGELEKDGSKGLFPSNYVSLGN

B1: YDR182W 95-108 (peptide)
chain: DPQIMDEYSYPGRP
B2: YHR205W 677-690 (peptide)
chain: EALKQKKIPPPFKP
B3: YNL042W 273-286 (peptide)
chain: DLHTHNLHTIPRKP
B4: YGR037C 7-20 (peptide)
chain: EEKAKAVNELPTKP
B5: YPL117C 30-42 (peptide)
chain: EEFPEIIPLQQRP
B6: YFL004W 659-671 (peptide)
chain: EEEIELPPGVKKP
B7: YBL035C 6-18 (peptide)
chain: DVITHFGPDADKP
B8: YHR004C 68-81 (peptide)
chain: DQNQERKNSVPKKP
B9: YPL073C 93-105 (peptide)
chain: DVMKQSFPRLIKP
B10: YLL029W 272-285 (peptide)
chain: DSIWPDFETLPERP
B11: YDR528W 157-170 (peptide)
chain: EDDTNPQLLEPVKP
B12: YNL106C 1102-1115 (peptide)
chain: DPEPAKASTKPEKP
B13: YGR158C 5-17 (peptide)
chain: DRRRLLGPAAAKP
B14: YAL054C 106-118 (peptide)
chain: DKVFIPDPKTGRP
B15: YOR358W 226-239 (peptide)
chain: DMFDFLIDVVPRRP
B16: YLR087C 1186-1198 (peptide)
chain: DNDEEADPSSFKP
B17: YDL164C 380-393 (peptide)
chain: DKYSTLRPGIPLKP
B18: YLR357W 414-427 (peptide)
chain: DWALLRNQNDPQKP
B19: YJR147W 209-222 (peptide)
chain: DSSLQHQQRQPKRP
B20: YHL007C 462-475 (peptide)
chain: DSSSANGKFIPSRP
B21: YDR227W 268-280 (peptide)
chain: EESKARSPGIAKP
B22: YLR285W 15-27 (peptide)
chain: EEPEDFLPPPPKP
B23: YNL165W 290-303 (peptide)
chain: EEFDSYSRSRPTRP
B24: YDR488C 342-354 (peptide)
chain: DLTVLRKPQQLRP
B25: YBL005W-B 1588-1601 (peptide)
chain: DKQLIWHKSKPVKP
B26: YBL101W-B 1603-1616 (peptide)
chain: DKQLIWHKNKPTKP
B27: YMR032W 380-392 (peptide)
chain: DSVLRQKPDKPRP
B28: YBR237W 77-89 (peptide)
chain: EFRKSDEPVSVKP
B29: YBL007C 188-201 (peptide)
chain: EDEEGPPPAMPARP
B30: YPL009C 301-314 (peptide)
chain: DLEFIYDTFHPFKP
B31: YIL128W 218-230 (peptide)
chain: DVLFSYFPITFKP
B32: YPR032W 898-911 (peptide)
chain: DTLYINGIRIPYRP
B33: YER169W 627-639 (peptide)
chain: DTNDIKTPHPERP
B34: YOR028C 108-120 (peptide)
chain: DVPNTAGPHIARP
B35: YLR071C 1030-1042 (peptide)
chain: DTKRLGTPESVKP
B36: YNL298W 506-519 (peptide)
chain: DVAQPGGVAKPKKP
B37: YOR287C 64-76 (peptide)
chain: EDFKDTKPVHKKP
B38: YDR242W 443-456 (peptide)
chain: DVIISPTTLMPFRP
B39: YNL023C 749-762 (peptide)
chain: DKTRSSLHFKPMRP
B40: YMR304W 152-164 (peptide)
chain: DLNNLKHPSKGRP
B41: YMR265C 218-231 (peptide)
chain: DLPRLKWSAIPVRP
B42: YFR037C 542-554 (peptide)
chain: DSIAKLQPQVYKP
B43: YMR275C 4-16 (peptide)
chain: DLNDSGFPPKRKP
B44: YBL111C 228-241 (peptide)
chain: DTERLKRDLSPRKP
B45: YIL115C 681-693 (peptide)
chain: DVDSSSTPFGTKP
B46: YAL038W 65-78 (peptide)
chain: DNARKSEELYPGRP
B47: YDR074W 548-560 (peptide)
chain: DMERKMTPALNRP
B48: YLR079W 130-143 (peptide)
chain: EEEEGEVLLPPSRP
B49: YGL212W 55-68 (peptide)
chain: DVGSTIPYDFPEKP
B50: YER159C 3-16 (peptide)
chain: DQVPVTTQLPPIKP
B51: YMR027W 61-74 (peptide)
chain: EFRQEIIDRVPLRP
B52: YGR154C 60-73 (peptide)
chain: DSKGARFLPAPHRP
B53: YDR127W 1000-1013 (peptide)
chain: EETIVFLQSDPSRP
B54: YDL213C 31-43 (peptide)
chain: DVKKEQAPEGKRP
B55: YNL241C 60-72 (peptide)
chain: DLKSRVLPHLKKP
B56: YMR266W 274-286 (peptide)
chain: DNIAEYVPDKKRP
B57: YDR477W 309-321 (peptide)
chain: DLPEYLLPPDLKP
B58: YKL010C 660-672 (peptide)
chain: EFTDMEIPDSVKP

Molecular target: T1, Abp1 SH3 (ABP1_YEAST), P15891
Experiment: SPOT array

First: B1
Second: B2
The normalised SPOT signal, Boehringer light units (BLU); mean over the file's lines of this peptide of the first is lower: 144 for the first, 3010 for the second.

Compared with B3, B4 is higher in normalised SPOT signal, Boehringer light units (BLU); mean over the file's lines of this peptide: 76 for the first, 188 for the second.

First: B5
Second: B6
The normalised SPOT signal, Boehringer light units (BLU); mean over the file's lines of this peptide of the first is higher: 145 for the first, 77.1 for the second.

Compared with B7, B8 is higher in normalised SPOT signal, Boehringer light units (BLU); mean over the file's lines of this peptide: 25.6 for the first, 60 for the second.

First: B9
Second: B10
The normalised SPOT signal, Boehringer light units (BLU); mean over the file's lines of this peptide of the first is higher: 2470 for the first, 0 for the second.

Going from B11 to B12, the normalised SPOT signal, Boehringer light units (BLU); mean over the file's lines of this peptide falls from 86.1 to 76.2.

First: B13
Second: B14
The normalised SPOT signal, Boehringer light units (BLU); mean over the file's lines of this peptide of the first is higher: 483 for the first, 66.6 for the second.

Going from B15 to B16, the normalised SPOT signal, Boehringer light units (BLU); mean over the file's lines of this peptide falls from 230 to 68.3.

Going from B17 to B18, the normalised SPOT signal, Boehringer light units (BLU); mean over the file's lines of this peptide falls from 1000 to 145.

Compared with B19, B20 is lower in normalised SPOT signal, Boehringer light units (BLU); mean over the file's lines of this peptide: 105 for the first, 98.6 for the second.

Going from B21 to B22, the normalised SPOT signal, Boehringer light units (BLU); mean over the file's lines of this peptide falls from 404 to 108.

Compared with B23, B24 is higher in normalised SPOT signal, Boehringer light units (BLU); mean over the file's lines of this peptide: 254 for the first, 27100 for the second.

Compared with B25, B26 is lower in normalised SPOT signal, Boehringer light units (BLU); mean over the file's lines of this peptide: 2860 for the first, 1730 for the second.

First: B27
Second: B28
The normalised SPOT signal, Boehringer light units (BLU); mean over the file's lines of this peptide of the first is higher: 380 for the first, 69.6 for the second.

First: B29
Second: B30
The normalised SPOT signal, Boehringer light units (BLU); mean over the file's lines of this peptide of the first is lower: 36.2 for the first, 89.2 for the second.

Going from B31 to B32, the normalised SPOT signal, Boehringer light units (BLU); mean over the file's lines of this peptide rises from 32.1 to 135.

First: B33
Second: B34
The normalised SPOT signal, Boehringer light units (BLU); mean over the file's lines of this peptide of the first is lower: 77.3 for the first, 144 for the second.

Compared with B35, B36 is lower in normalised SPOT signal, Boehringer light units (BLU); mean over the file's lines of this peptide: 130 for the first, 62 for the second.

Compared with B37, B38 is lower in normalised SPOT signal, Boehringer light units (BLU); mean over the file's lines of this peptide: 144 for the first, 68.9 for the second.

First: B39
Second: B40
The normalised SPOT signal, Boehringer light units (BLU); mean over the file's lines of this peptide of the first is higher: 377 for the first, 86.6 for the second.

First: B41
Second: B42
The normalised SPOT signal, Boehringer light units (BLU); mean over the file's lines of this peptide of the first is higher: 2060 for the first, 83.3 for the second.

First: B43
Second: B44
The normalised SPOT signal, Boehringer light units (BLU); mean over the file's lines of this peptide of the first is lower: 84.6 for the first, 394 for the second.

Going from B45 to B46, the normalised SPOT signal, Boehringer light units (BLU); mean over the file's lines of this peptide falls from 113 to 105.

Going from B47 to B48, the normalised SPOT signal, Boehringer light units (BLU); mean over the file's lines of this peptide falls from 2180 to 81.5.

First: B49
Second: B50
The normalised SPOT signal, Boehringer light units (BLU); mean over the file's lines of this peptide of the first is higher: 140 for the first, 74.1 for the second.

Going from B51 to B52, the normalised SPOT signal, Boehringer light units (BLU); mean over the file's lines of this peptide rises from 118 to 299.

Compared with B53, B54 is higher in normalised SPOT signal, Boehringer light units (BLU); mean over the file's lines of this peptide: 50.7 for the first, 94.6 for the second.

Compared with B55, B56 is lower in normalised SPOT signal, Boehringer light units (BLU); mean over the file's lines of this peptide: 440 for the first, 91 for the second.

Compared with B57, B58 is higher in normalised SPOT signal, Boehringer light units (BLU); mean over the file's lines of this peptide: 23.2 for the first, 72.6 for the second.
